Results taken from US20240252592A1 (TIANJIN INSTITUTE OF PHARMACEUTICAL RESEARCH, published 2024).
Numbered stars: 1 amine (or outer) side, 2 acyl side, 3 side chain; on linkers, the order of the positions; unused ones are H or OH. Square brackets hold non-standard residues; d marks the D form. Side chains are listed from the residue outwards. Ends that are not written are not given here. * marks the point of attachment. C18 diacid = O=C(O)CCCCCCCCCCCCCCCCC(=O)*; γGlu = O=C(O)[C@H](CCC(=O)[*:2])N[*:1]; Palmitoyl = CCCCCCCCCCCCCCCC(=O)*; AEEA = NCCOCCOCC(=O)O; Aib = CC(C)(N)C(=O)O

B1: Compound 17 (peptide)
peptide: H[Aib]QGTFTSDK([AEEA-AEEA-γGlu-C18 diacid])SKYLEERAAKEFVAWLKEGGPSSG-NH2
modifications: N-terminus assumed
SMILES: CC(C)C[C@H](NC(=O)[C@H](Cc1c[nH]c2ccccc12)NC(=O)[C@H](C)NC(=O)[C@@H](NC(=O)[C@H](Cc1ccccc1)NC(=O)[C@H](CCC(=O)O)NC(=O)[C@H](CCCCN)NC(=O)[C@H](C)NC(=O)[C@H](C)NC(=O)[C@H](CCCNC(=N)N)NC(=O)[C@H](CCC(=O)O)NC(=O)[C@H](CCC(=O)O)NC(=O)[C@H](CC(C)C)NC(=O)[C@H](Cc1ccc(O)cc1)NC(=O)[C@H](CCCCN)NC(=O)[C@H](CO)NC(=O)[C@H](CCCCNC(=O)COCCOCCNC(=O)COCCOCCNC(=O)CC[C@H](NC(=O)CCCCCCCCCCCCCCCCC(=O)O)C(=O)O)NC(=O)[C@H](CC(=O)O)NC(=O)[C@H](CO)NC(=O)[C@@H](NC(=O)[C@H](Cc1ccccc1)NC(=O)[C@@H](NC(=O)CNC(=O)[C@H](CCC(N)=O)NC(=O)C(C)(C)NC(=O)[C@@H](N)Cc1c[nH]cn1)[C@@H](C)O)[C@@H](C)O)C(C)C)C(=O)N[C@@H](CCCCN)C(=O)N[C@@H](CCC(=O)O)C(=O)NCC(=O)NCC(=O)N1CCC[C@H]1C(=O)N[C@@H](CO)C(=O)N[C@@H](CO)C(=O)NCC(N)=O
B2: Compound 19 (peptide)
peptide: HXQGTFTSDKSKYLESERAKEFVEWLVKEGGPSSG
HELM: PEPTIDE1{H.[Aib].Q.G.T.F.T.S.D.K.S.K.Y.L.E.S.E.R.A.K.E.F.V.E.W.L.V.K.E.G.G.P.S.S.G.[am]}|PEPTIDE2{[CCCCCCCCCCCCCCCC(=O)[*:2]].[gGlu].[gGlu]}$PEPTIDE1,PEPTIDE2,10:R3-3:R2$$$V2.0; N-terminus assumed
SMILES: CCCCCCCCCCCCCCCC(=O)N[C@@H](CCC(=O)N[C@@H](CCC(=O)NCCCC[C@H](NC(=O)[C@H](CC(=O)O)NC(=O)[C@H](CO)NC(=O)[C@@H](NC(=O)[C@H](Cc1ccccc1)NC(=O)[C@@H](NC(=O)CNC(=O)[C@H](CCC(N)=O)NC(=O)C(C)(C)NC(=O)[C@@H](N)Cc1c[nH]cn1)[C@@H](C)O)[C@@H](C)O)C(=O)N[C@@H](CO)C(=O)N[C@@H](CCCCN)C(=O)N[C@@H](Cc1ccc(O)cc1)C(=O)N[C@@H](CC(C)C)C(=O)N[C@@H](CCC(=O)O)C(=O)N[C@@H](CO)C(=O)N[C@@H](CCC(=O)O)C(=O)N[C@@H](CCCNC(=N)N)C(=O)N[C@@H](C)C(=O)N[C@@H](CCCCN)C(=O)N[C@@H](CCC(=O)O)C(=O)N[C@@H](Cc1ccccc1)C(=O)N[C@H](C(=O)N[C@@H](CCC(=O)O)C(=O)N[C@@H](Cc1c[nH]c2ccccc12)C(=O)N[C@@H](CC(C)C)C(=O)N[C@H](C(=O)N[C@@H](CCCCN)C(=O)N[C@@H](CCC(=O)O)C(=O)NCC(=O)NCC(=O)N1CCC[C@H]1C(=O)N[C@@H](CO)C(=O)N[C@@H](CO)C(=O)NCC(N)=O)C(C)C)C(C)C)C(=O)O)C(=O)O
B3: Compound 15 (peptide)
peptide: HXQGTFTSDYSKYLXERAAKEFVXWLEAGGPSSG
HELM: PEPTIDE1{H.[Aib].Q.G.T.F.T.S.D.Y.S.K.Y.L.D.E.R.A.A.K.E.F.V.A.W.L.E.A.G.G.P.S.S.G.[am]}|PEPTIDE2{[CCCCCCCCCCCCCCCC(=O)[*:2]].[gGlu].[gGlu]}$PEPTIDE1,PEPTIDE2,20:R3-3:R2$$$V2.0; N-terminus assumed
SMILES: CCCCCCCCCCCCCCCC(=O)N[C@@H](CCC(=O)N[C@@H](CCC(=O)NCCCC[C@H](NC(=O)[C@H](C)NC(=O)[C@H](C)NC(=O)[C@H](CCCNC(=N)N)NC(=O)[C@H](CCC(=O)O)NC(=O)[C@H](CC(=O)O)NC(=O)[C@H](CC(C)C)NC(=O)[C@H](Cc1ccc(O)cc1)NC(=O)[C@H](CCCCN)NC(=O)[C@H](CO)NC(=O)[C@H](Cc1ccc(O)cc1)NC(=O)[C@H](CC(=O)O)NC(=O)[C@H](CO)NC(=O)[C@@H](NC(=O)[C@H](Cc1ccccc1)NC(=O)[C@@H](NC(=O)CNC(=O)[C@H](CCC(N)=O)NC(=O)C(C)(C)NC(=O)[C@@H](N)Cc1c[nH]cn1)[C@@H](C)O)[C@@H](C)O)C(=O)N[C@@H](CCC(=O)O)C(=O)N[C@@H](Cc1ccccc1)C(=O)N[C@H](C(=O)N[C@@H](C)C(=O)N[C@@H](Cc1c[nH]c2ccccc12)C(=O)N[C@@H](CC(C)C)C(=O)N[C@@H](CCC(=O)O)C(=O)N[C@@H](C)C(=O)NCC(=O)NCC(=O)N1CCC[C@H]1C(=O)N[C@@H](CO)C(=O)N[C@@H](CO)C(=O)NCC(N)=O)C(C)C)C(=O)O)C(=O)O
B4: Compound 16 (peptide)
peptide: HXQGTFTSDKSKYLEERAAKEFIAWLLEGGPSSG
HELM: PEPTIDE1{H.[Aib].Q.G.T.F.T.S.D.K.S.K.Y.L.E.E.R.A.A.K.E.F.I.A.W.L.L.E.G.G.P.S.S.G.[am]}|PEPTIDE2{[CCCCCCCCCCCCCCCC(=O)[*:2]].[gGlu].[gGlu]}$PEPTIDE1,PEPTIDE2,10:R3-3:R2$$$V2.0; N-terminus assumed
SMILES: CCCCCCCCCCCCCCCC(=O)N[C@@H](CCC(=O)N[C@@H](CCC(=O)NCCCC[C@H](NC(=O)[C@H](CC(=O)O)NC(=O)[C@H](CO)NC(=O)[C@@H](NC(=O)[C@H](Cc1ccccc1)NC(=O)[C@@H](NC(=O)CNC(=O)[C@H](CCC(N)=O)NC(=O)C(C)(C)NC(=O)[C@@H](N)Cc1c[nH]cn1)[C@@H](C)O)[C@@H](C)O)C(=O)N[C@@H](CO)C(=O)N[C@@H](CCCCN)C(=O)N[C@@H](Cc1ccc(O)cc1)C(=O)N[C@@H](CC(C)C)C(=O)N[C@@H](CCC(=O)O)C(=O)N[C@@H](CCC(=O)O)C(=O)N[C@@H](CCCNC(=N)N)C(=O)N[C@@H](C)C(=O)N[C@@H](C)C(=O)N[C@@H](CCCCN)C(=O)N[C@@H](CCC(=O)O)C(=O)N[C@@H](Cc1ccccc1)C(=O)N[C@H](C(=O)N[C@@H](C)C(=O)N[C@@H](Cc1c[nH]c2ccccc12)C(=O)N[C@@H](CC(C)C)C(=O)N[C@@H](CC(C)C)C(=O)N[C@@H](CCC(=O)O)C(=O)NCC(=O)NCC(=O)N1CCC[C@H]1C(=O)N[C@@H](CO)C(=O)N[C@@H](CO)C(=O)NCC(N)=O)[C@@H](C)CC)C(=O)O)C(=O)O
B5: Compound 25 (peptide)
peptide: HXQGTFTSDKSKYLEERAAKEFVEWLLEAGGPSSG
HELM: PEPTIDE1{H.[Aib].Q.G.T.F.T.S.D.K.S.K.Y.L.E.E.R.A.A.K.E.F.V.E.W.L.L.E.A.G.G.P.S.S.G.[am]}|PEPTIDE2{[CCCCCCCCCCCCCCCC(=O)[*:2]].[gGlu].[gGlu]}$PEPTIDE1,PEPTIDE2,10:R3-3:R2$$$V2.0; N-terminus assumed
SMILES: CCCCCCCCCCCCCCCC(=O)N[C@@H](CCC(=O)N[C@@H](CCC(=O)NCCCC[C@H](NC(=O)[C@H](CC(=O)O)NC(=O)[C@H](CO)NC(=O)[C@@H](NC(=O)[C@H](Cc1ccccc1)NC(=O)[C@@H](NC(=O)CNC(=O)[C@H](CCC(N)=O)NC(=O)C(C)(C)NC(=O)[C@@H](N)Cc1c[nH]cn1)[C@@H](C)O)[C@@H](C)O)C(=O)N[C@@H](CO)C(=O)N[C@@H](CCCCN)C(=O)N[C@@H](Cc1ccc(O)cc1)C(=O)N[C@@H](CC(C)C)C(=O)N[C@@H](CCC(=O)O)C(=O)N[C@@H](CCC(=O)O)C(=O)N[C@@H](CCCNC(=N)N)C(=O)N[C@@H](C)C(=O)N[C@@H](C)C(=O)N[C@@H](CCCCN)C(=O)N[C@@H](CCC(=O)O)C(=O)N[C@@H](Cc1ccccc1)C(=O)N[C@H](C(=O)N[C@@H](CCC(=O)O)C(=O)N[C@@H](Cc1c[nH]c2ccccc12)C(=O)N[C@@H](CC(C)C)C(=O)N[C@@H](CC(C)C)C(=O)N[C@@H](CCC(=O)O)C(=O)N[C@@H](C)C(=O)NCC(=O)NCC(=O)N1CCC[C@H]1C(=O)N[C@@H](CO)C(=O)N[C@@H](CO)C(=O)NCC(N)=O)C(C)C)C(=O)O)C(=O)O
B6: Compound 23 (peptide)
peptide: H[Aib]QGTFTSDK([AEEA-AEEA-γGlu-C18 diacid])SKYLDEKRAKEFIEWLEAGGPSSG-NH2
modifications: N-terminus assumed
SMILES: CC[C@H](C)[C@H](NC(=O)[C@H](Cc1ccccc1)NC(=O)[C@H](CCC(=O)O)NC(=O)[C@H](CCCCN)NC(=O)[C@H](C)NC(=O)[C@H](CCCNC(=N)N)NC(=O)[C@H](CCCCN)NC(=O)[C@H](CCC(=O)O)NC(=O)[C@H](CC(=O)O)NC(=O)[C@H](CC(C)C)NC(=O)[C@H](Cc1ccc(O)cc1)NC(=O)[C@H](CCCCN)NC(=O)[C@H](CO)NC(=O)[C@H](CCCCNC(=O)COCCOCCNC(=O)COCCOCCNC(=O)CC[C@H](NC(=O)CCCCCCCCCCCCCCCCC(=O)O)C(=O)O)NC(=O)[C@H](CC(=O)O)NC(=O)[C@H](CO)NC(=O)[C@@H](NC(=O)[C@H](Cc1ccccc1)NC(=O)[C@@H](NC(=O)CNC(=O)[C@H](CCC(N)=O)NC(=O)C(C)(C)NC(=O)[C@@H](N)Cc1c[nH]cn1)[C@@H](C)O)[C@@H](C)O)C(=O)N[C@@H](CCC(=O)O)C(=O)N[C@@H](Cc1c[nH]c2ccccc12)C(=O)N[C@@H](CC(C)C)C(=O)N[C@@H](CCC(=O)O)C(=O)N[C@@H](C)C(=O)NCC(=O)NCC(=O)N1CCC[C@H]1C(=O)N[C@@H](CO)C(=O)N[C@@H](CO)C(=O)NCC(N)=O

molecular target: human GLP-1 receptor (human, UniProt P43220 24-463); assay: cell-based or functional assay

EC50 of GLP-1 receptor mediated cAMP production [nM]	Binder
0.027	H[Aib]QGTFTSDK([AEEA-AEEA-γGlu-C18 diacid])SKYLEERAAKEFVAWLEAGGPSSG-NH2 (not fully specified; printed as HAibQGTFTSDK**SKYLEERAAKEFVAWLEAGGPSSG-Amid) [Compound 22]
2.21	B1
0.83	H[Aib]QGTFTSDK([γGlu-γGlu-Palmitoyl])SKYLEERAAKEFIAWLEGGPSSG-NH2 (not fully specified; printed as HAibQGTFTSDK*SKYLEERAAKEFIAWLEGGPSSG-Amid) [Compound 21]
3.53	B2
0.58	B3
0.405	B4
0.211	B5
0.194	B6

molecular target: GC receptor; assay: cell-based or functional assay

EC50 of GC receptor mediated cAMP production [nM]	Binder
0.018	H[Aib]QGTFTSDK([AEEA-AEEA-γGlu-C18 diacid])SKYLEERAAKEFVAWLEAGGPSSG-NH2 (not fully specified; printed as HAibQGTFTSDK**SKYLEERAAKEFVAWLEAGGPSSG-Amid) [Compound 22]
0.486	B1
0.175	H[Aib]QGTFTSDK([γGlu-γGlu-Palmitoyl])SKYLEERAAKEFIAWLEGGPSSG-NH2 (not fully specified; printed as HAibQGTFTSDK*SKYLEERAAKEFIAWLEGGPSSG-Amid) [Compound 21]
6.25	B2
0.148	B3
0.092	B4
0.278	B5
0.329	B6
